Key:
[1] = Thermal unfolding by circular dichroism and nano-differential scanning fluorimetry; assay type: physicochemical; settings: circular dichroism thermal ramping (20-70 °C, 220 nm) and nanoDSF (0.35 mg ml^−1, 1 °C min^−1); 25 mM phosphate pH 7.5, 150 mM NaF; triplicates
Procedure: Thermal unfolding coupled to CD was performed between 20 °C and 70 °C with a measure in triplicate every 5 °C increment. Millidegree values at 220 nm were plotted against their temperature and the melting temperature calculated using a Boltzmann sigmoidal equation.
Melting temperatures were measured by Nano differential scanning fluorimetry using a Prometheus NT.48 (Nanotemper). Tryptophan intrinsic fluorescence emission was recorded at 330 and 350 nm with 30% excitation power during thermal ramping from 20 to 90 °C (1 °C min^−1). 10 μl of proteins in 25 mM phosphate buffer (pH 7.5), 150 mM NaF and at a concentration of 0.35 mg ml^−1 were loaded in nanoDSF grade standard capillaries. Samples were measured in triplicates and the calculated melting temperatures averaged. Melting temperature were calculated by the software PR.ThermControl.

organellar pellet = assay: Distribution of Pex5p variants between cytosolic fraction and organellar pellet; assay type: cell-based, S. cerevisiae; settings: postnuclear supernatants of oleate-grown cells; immunoblot; n = 3
Procedure: Spheroplasting of yeast cells, homogenization, preparation of postnuclear supernatants and generation of cytosolic fractions and organellar pellets by centrifugation (25,000 g for 15 min at 4 °C) were performed as described previously ([Erdmann et al. 1989]).
Immunoblot analyses were performed according to standard procedures. Polyclonal rabbit antibodies used were raised against Pex5p ([Albertini et al. 1997]), Pex14p ([Girzalsky et al. 1999]), Pex13p ([Girzalsky et al. 1999]) and Pex17p ([Huhse et al. 1998]). To detect GFP, monoclonal mouse antibodies (Sigma-Aldrich/Merck or Roche Diagnostics, Germany) were used. Immuno-reactive complexes were visualized either using the IRDye 800CW goat anti-mouse IgG or IRDye 680RD goat anti-rabbit secondary antibody (Li-COR Biosciences, Bad Homburg, Germany) followed by detection with an ‘Infrarot Imaging System’ (Li-COR Biosciences) or using horseradish-peroxidase coupled anti-rabbit or anti-mouse antibodies (Sigma-Aldrich/Merck, Germany) and subsequent detection of chemiluminescence signals with a ChemoCam Camera system (INTAS Science instruments GmbH, Göttingen, Germany). Quantification of immunoblot signals (Supplementary Figure 1E; n = 3) was performed using the software Image Studio Lite (LI-COR Biosciences).

[2] = Native MS of purified individual proteins (oligomeric state); assay type: physicochemical; settings: Pex5p 7.5 µM, Pcs60p 5 µM; 200 mM ammonium acetate pH 6.8
Procedure: Recombinantly expressed Pex5p variants and Pcs60p protein solutions were buffer-exchanged into 200 mM ammonium acetate pH 6.8 at 4 °C using microcentrifuge gel filtration columns Bio-Spin 6 (Bio-Rad Laboratories). Protein concentration was determined spectrophotometrically using a Nanodrop 2000c (Thermo Scientific) by measuring absorption at 280 nm. Proteins were either analyzed individually or as mixture of Pex5p variant with Pcs60p at indicated concentrations to study receptor-cargo complex formation. For this, Pex5p^WT or Pex5p^2D mutant was incubated with Pcs60p for 5 min on ice. Spectra were obtained using a Synapt HDMS (Waters and MS Vision) equipped with an m/z 32,000 range quadrupole by introducing 3 µl sample with an in-house manufactured gold-coated capillary needle (Brosilicate Thin Wall with Filament Clark Capillary Glass, OD 1.0 mm, ID 0.78 mm; Harvard Apparatus). […]
Spectra were calibrated externally using cesium iodide. […] Quantification of complex abundances was performed based on area under signals using a similar approach as previously described ([Danquah et al. 2019]; [Yefremova et al. 2017]). To compare stabilities of receptor-cargo complexes for Pex5p^WT and Pex5p^2D the collisional activation was quantified by calculating center-of-mass energies (E com) based on the abundance-weighted mean charge states of the 1:1 complex for each acceleration voltage. […]

B1: Pex5p^WT: Pex5p wildtype, PTS1 receptor of S. cerevisiae (protein)
chain: MDVGSCSVGNNPLAQLHKHTQQNKSLQFNQKNNGRLNESPLQGTNKPGISEAFISNVNAISQENMANMQRFINGEPLIDDKRRMEIGPSSGRLPPFSNVHSLQTSANPTQIKGVNDISHWSQEFQGSNSIQNRNADTGNSEKAWQRGSTTASSRFQYPNTMMNNYAYASMNSLSGSRLQSPAFMNQQQSGRSKEGVNEQEQQPWTDQFEKLEKEVSENLDINDEIEKEENVSEVEQNKPETVEKEEGVYGDQYQSDFQEVWDSIHKDAEEVLPSELVNDDLNLGEDYLKYLGGRVNGNIEYAFQSNNEYFNNPNAYKIGCLLMENGAKLSEAALAFEAAVKEKPDHVDAWLRLGLVQTQNEKELNGISALEECLKLDPKNLEAMKTLAISYINEGYDMSAFTMLDKWAETKYPEIWSRIKQQDDKFQKEKGFTHIDMNAHITKQFLQLANNLSTIDPEIQLCLGLLFYTKDDFDKTIDCFESALRVNPNDELMWNRLGASLANSNRSEEAIQAYHRALQLKPSFVRARYNLAVSSMNIGCFKEAAGYLLSVLSMHEVNTNNKKGDVGSLLNTYNDTVIETLKRVFIAMNRDDLLQEVKPGMDLKRFKGEFSF
modifications: left off: His6, N-terminal, state not stated
notes: Pex5p wildtype, PTS1 receptor of S. cerevisiae
melting temperature [1]: approximately 46 °C
distribution between cytosolic fraction and organellar pellet (membrane binding) (organellar pellet): no detectable difference
oligomeric state in native MS [2]: mainly detected in a monomeric state
